Results: patent US20190375786A1, “STABLE PEPTIDES AND METHODS OF USE THEREOF” (Fred Hutchinson Cancer Research Center, priority 2016, published 2019)

Target: trypsin (Sus scrofa, UniProt P00761)
Test: SDPR surface display protease resistance, anti-6xHis staining, trypsin
Assay type: cell-based
Conditions: HEK-293 cells, up to 40 μg/ml trypsin for 20 minutes
Protocol: Soluble peptides were exposed to 500 U/mL porcine trypsin and analyzed by HPLC. Protease resistance was also assessed by using SDPR-displaying peptides. The SDPR vector is similar to the a surface display GFP FasL(SDGF) vector, but contains a C-terminal 6×His tag (SEQ ID NO: 180) and all basic or aromatic amino acid residues on the stalk removed. Protease resistance is then tested by incubation of cells displaying peptides with trypsin or chymotrypsin, followed by incubation in 10 mM DTT, and staining with an anti-6×His fluorophore-labeled antibody (“6×His” disclosed as SEQ ID NO: 180). If peptides are uncleaved, they retain the His tag and are stained with by the antibody. A control protease-sensitive knottin peptide (SK) was used as a positive control. Cells displaying peptides were treated with up to 40 μg/ml trypsin or chymotrypsin.
To determine the impact of protease treatment or reducing condition on the function of the peptides, i.e., binding activity, various binding or functional assays can be performed. […] After treatment with the protease and reducing agent, any linearized peptide product or degradation product resulting from reduction and/or proteolysis by treatment with a protease can be detected or analyzed by staining against the 6×His tag (SEQ ID NO: 180). […]

Chain of trypsin (P00761 9-231): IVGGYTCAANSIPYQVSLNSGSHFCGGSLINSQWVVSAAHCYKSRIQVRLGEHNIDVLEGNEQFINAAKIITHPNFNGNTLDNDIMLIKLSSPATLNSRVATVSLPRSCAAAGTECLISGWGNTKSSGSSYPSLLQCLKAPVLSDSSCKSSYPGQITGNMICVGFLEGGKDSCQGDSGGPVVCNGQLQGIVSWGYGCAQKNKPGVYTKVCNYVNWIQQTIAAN

## GSPDEYIERAKECCKKQDIQCCLRIFDESKDPNVMLICLFCW [SEQ ID NO: 43]
  resistance of surface-displayed peptide to cleavage by trypsin: partially resistant
